Experiment [1] deals with T1, human glycophorin A on human red blood cells or red blood cell membranes (human, UniProt P02724 20-150).
T1 construct: whole, on cells; also called hRBC; human RBC membranes
T1 sequence (looked up): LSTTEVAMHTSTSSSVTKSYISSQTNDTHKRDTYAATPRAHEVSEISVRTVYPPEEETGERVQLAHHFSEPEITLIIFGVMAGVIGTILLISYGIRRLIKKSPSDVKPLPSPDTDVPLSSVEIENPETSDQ
The experiment is described as follows: scFv on intact human RBC, unbound scFv by ELISA; 0 min after 200-fold dilution. In general terms: ELISA stands for enzyme-linked immunosorbent assay.
Experimental: (§1) RBC diluted to 1/10th of normal hematocrit were incubated with the set of “Top 10” purified scFv antibodies at a final concentration of 7 ug/ml for 1 hour at room temperature on a rotating shaker after which a sample was taken and the RBC were pelleted by centrifugation and the supernatant was collected. The remaining RBC suspension was diluted 200-fold in PBS buffer and incubated for a total of 2 hours at room temperature on a rotating shaker and samples were removed at 0, 5 min, 20 min, 1 h and 2 h and the RBC pelleted and the supernatant collected. […] The percentage that remains bound after dilution is an indication of the overall strength of the binding to human RBC.

Experiment [2] addresses T1, human glycophorin A on human red blood …. The experiment is described as follows: scFv on intact human RBC, unbound scFv by ELISA; 120 min after 200-fold dilution.
Experimental: as §1
Experiment [3] shares this target. Nature of the experiment: scFv on intact human RBC, unbound scFv by ELISA; 60 min after 200-fold dilution.
Experimental: as §1
The target is the same in experiment [4]. Nature of the experiment: scFv 7 ug/ml on intact human RBC, unbound scFv by ELISA; pre-dilution.
Experimental: as §1
For experiment [5] the target is unchanged. Nature of the experiment: scFv on intact human RBC, unbound scFv by ELISA; 5 min after 200-fold dilution.
Experimental: as §1
Experiment [6] shares this target. Nature of the experiment: scFv on intact human RBC, unbound scFv by ELISA; 20 min after 200-fold dilution.
Experimental: as §1
Experiment [7] shares this target. The experiment is described as follows: Fab on intact human RBC, unbound Fab by ELISA; 20 min after 200-fold dilution.
Experimental: (§2) The binding of affinity matured Fab antibodies to intact human RBC was also measured. Human RBC were isolated from fresh anti-coagulated normal human blood by centrifugation through a ficol gradient and washing in PBS buffer. RBC diluted to 1/10th of normal hematocrit were incubated with purified Fab antibodies at a final concentration of 7 ug/ml for 1 hour at room temperature on a rotating shaker after which a sample was taken and the RBC were pelleted by centrifugation and the supernatant was collected. The remaining RBC suspension was diluted 200-fold in PBS buffer and incubated for a total of 2 hours at room temperature on a rotating shaker and samples were removed at 0, 5 min, 20 min, 1 h and 2 h and the RBC pelleted and the supernatant collected. The amount of Fab in the supernatants was then measured using an ELISA assay and the results used to calculate the percentage of the input Fab that was bound to the RBC. […] The percentage that remains bound after 200-fold dilution of the RBC suspension is an indication of the overall strength of the binding to human RBC.
For experiment [8] the target is unchanged. Nature of the experiment: Fab on intact human RBC, unbound Fab by ELISA; 120 min after 200-fold dilution.
Experimental: as §2
Experiment [9] deals with T2, Cynomolgus monkey glycophorin A on Cynomolgus monkey red blood cells or red blood cell membranes (Cynomolgus monkey).
T2 construct: whole, on cells; also called Cyno RBC; Cynomolgus monkey RBC membranes
The experiment is described as follows: Fab on intact cyno RBC, unbound Fab by ELISA; 0 min after 200-fold dilution.

Experiment [10] has as its target T1, human glycophorin A on human red blood …. Nature of the experiment: Fab on intact human RBC, unbound Fab by ELISA; 60 min after 200-fold dilution.
Experimental: as §2
The target of experiment [11] is T2, Cynomolgus monkey glycophorin A on …. Nature of the experiment: Fab 7 ug/ml on intact cyno RBC, unbound Fab by ELISA; pre-dilution.
For experiment [12], the target named is T1, human glycophorin A on human red blood …. Nature of the experiment: Fab on intact human RBC, unbound Fab by ELISA; 5 min after 200-fold dilution.
Experimental: as §2
Experiment [13] addresses T2, Cynomolgus monkey glycophorin A on …. The experiment is described as follows: Fab on intact cyno RBC, unbound Fab by ELISA; 20 min after 200-fold dilution.
Experimental: (§3) The binding of affinity matured Fab antibodies to intact Cynomolgus monkey RBC was measured. Cynomolgus monkey RBC were isolated from fresh anti-coagulated blood by centrifugation through a ficol gradient and washing in PBS buffer. RBC diluted to 1/10th of normal hematocrit were incubated with the Fab at a final concentration of 7 ug/ml for 1 hour at room temperature on a rotating shaker after which a sample was taken and the RBC were pelleted by centrifugation and the supernatant was collected. The remaining RBC suspension was diluted 200-fold in PBS buffer and incubated for a total of 2 hours at room temperature on a rotating shaker and samples were removed at 0, 5 min, 20 min, 1 h and 2 h and the RBC pelleted and the supernatant collected. […] The amount of Fab in the supernatants was then measured using an ELISA assay and the results used to calculate the percentage of the input Fab that was bound to the RBC.
Experiment [14] shares this target. The experiment is described as follows: Fab on intact cyno RBC, unbound Fab by ELISA; 5 min after 200-fold dilution.
Experimental: as §3
Experiment [15] has as its target T1, human glycophorin A on human red blood …. The experiment is described as follows: Fab on intact human RBC, unbound Fab by ELISA; 0 min after 200-fold dilution.
The target is the same in experiment [16]. Nature of the experiment: SPR (Biacore), Fab on human RBC membranes. (In general: In SPR one partner is held on a chip, and binding of the other changes the refractive index at the surface.)
Experimental: (§4) Kinetic analysis of the antibody binding to human red blood cell membranes was also performed using surface plasmon resonance (SPR) using a Biacore instrument. In this assay membranes prepared from human red blood cells were attached to a L1 sensor matrix and antibodies were flowed over the RBC membranes.
(§5) The binding kinetics of the affinity matured Fab antibodies was also measured.
Experiment [17] shares this target. Nature of the experiment: SPR (Biacore), Fab on human RBC membranes; T½ = 0.69/kd.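 Further: human RBC membranes captured on an L1 sensor chip, Fab fragments passed over as analyte, binding kinetics read by surface plasmon resonance.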
Experimental: as §4, §5
The target is the same in experiment [18]. The experiment is described as follows: Fab 7 ug/ml on intact human RBC, unbound Fab by ELISA; pre-dilution.
Experimental: as §2
Experiment [19] has as its target T2, Cynomolgus monkey glycophorin A on …. Nature of the experiment: Fab on intact cyno RBC, unbound Fab by ELISA; 120 min after 200-fold dilution.
Experimental: as §3
Experiment [20] shares this target. Nature of the experiment: Fab on intact cyno RBC, unbound Fab by ELISA; 60 min after 200-fold dilution.
Experiment [21] deals with T1, human glycophorin A on human red blood …. The experiment is described as follows: SPR (Biacore), Fab on human RBC membranes; * not accurate, instrument limit.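 Further: human RBC membranes captured on an L1 sensor chip, Fab fragments passed over as analyte, binding kinetics read by surface plasmon resonance.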
Experimental: as §4, §5

B1: TPP-7792 scFv with C-terminal 6xHIS tag (scFv)
scFv: DIQLTQSPSFLSASVGDRVTITCRASSSVRYIYWFQQKPGKAPKLLIYATSFRQSGVPSRFSGSGSGTEYTLTISSLQPEDFATYYCHQRNSFPYTFGQGTKLEIKGGGGSGGGGSGGGGSGGGGSEVQLVQSGAEVKKPGASVKVSCKASGYTFTTYAIHWVRQAPGQGLEWMGYINPSSGYTRYNPKFKGRVTMTRDKSTSTAYMELRSLRSDDTAVYYCWTGTRDYWGQGTTVTVSSHHHHHH
Consider B1, for which the “percentage of input scFv antibody bound” value is 100% in [1]; 92% in experiment [2]; 95% in experiment [3]; 100% in [4]; 99% in [5]; 98% in experiment [6].

B2: TPP-7793 scFv with C-terminal 6xHIS tag (scFv)
scFv: DIQLTQSPSFLSASVGDRVTITCRASSSVSYIYWFQQKPGKAPKLLIYATSTLQSGVPSRFSGSGSGTEYTLTISSLQPEDFATYYCHQRNSFPYTFGQGTKLEIKGGGGSGGGGSGGGGSGGGGSEVQLVQSGAEVKKPGASVKVSCKASGYTFTRYTIHWVRQAPGQGLEWMGYINPSSGYTRYNPKFKGRVTMTRDKSTSTAYMELRSLRSDDTAVYYCWTGTRDYWGQGTTVTVSSHHHHHH
For B2, the “percentage of input scFv antibody bound” value stood at 92% in [1]; 79% in experiment [2]; 81% in experiment [3]; 92% in [4]; 92% in [5]; 84% in [6].

B3: TPP-7778 scFv with C-terminal 6xHIS tag (scFv)
scFv: DIQLTQSPSFLSASVGDRVTITCRASSSVRYIYWFQQKPGKAPKLLIYATSTLQSGVPSRFSGSGSGTEYTLTISSLQPEDFATYYCHQRNSFPYTFGQGTKLEIKGGGGSGGGGSGGGGSGGGGSEVQLVQSGAEVKKPGASVKVSCKASGYTFTTYAIHWVRQAPGQGLEWMGYINPSSGYTRYNPKFKHRVTMTRDKSTSTAYMELRSLRSDDTAVYYCQTGTRDYWGQGTTVTVSSHHHHHH
For B3, the “percentage of input scFv antibody bound” value in experiment [1] was determined as 97%; in [2], 76%; in [3], 79%; in experiment [4], 98%; in [5] it was 88%; in [6], 81%.

B4: TPP-7781 scFv with C-terminal 6xHIS tag (scFv)
scFv: DIQLTQSPSFLSASVGDRVTITCRASSSVRYIYWFQQKPGKAPKLLIYATSTLQSGVPSRFSGSGSGTEYTLTISSLQPEDFATYYCHQRNSFPYTFGQGTKLEIKGGGGSGGGGSGGGGSGGGGSEVQLVQSGAEVKKPGASVKVSCKASGYTFTTYTIHWVRQAPGQGLEWMGYINPKSGWTRYNPKFKGRVTMTRDKSTSTAYMELRSLRSDDTAVYYCQTGTRDYWGQGTTVTVSSHHHHHH
As to B4, the “percentage of input scFv antibody bound” value in experiment [1] worked out at 97%; in experiment [2], 92%; in [3] it was 93%; in experiment [4], 97%; in [5] it was 94%; in experiment [6], 93%.

B5: TPP-7782 scFv with C-terminal 6xHIS tag (scFv)
scFv: DIQLTQSPSFLSASVGDRVTITCRASSSVRYIYWFQQKPGKAPKLLIYATSFRQSGVPSRFSGSGSGTEYTLTISSLQPEDFATYYCHQRNSFPYTFGQGTKLEIKGGGGSGGGGSGGGGSGGGGSEVQLVQSGAEVKKPGASVKVSCKASGYTFTTYTIHWVRQAPGQGLEWMGYINPSSGYTRYNPKFKGRVTMTRDKSTSTAYMELRSLRSDDTAVYYCQTGTRDYWGQGTTVTVSSHHHHHH
As for B5, the “percentage of input scFv antibody bound” value in experiment [1] is 92%; in [2], 85%; in experiment [3], 89%; in experiment [4] it was 92%; in experiment [5], 91%; in experiment [6] it was 87%.

B6: TPP-7783 scFv with C-terminal 6xHIS tag (scFv)
scFv: DIQLTQSPSFLSASVGDRVTITCRASSSVRYIYWFQQKPGKAPKLLIYATSFRRSGVPSRFSGSGSGTEYTLTISSLQPEDFATYYCHQRNSFPYTFGQGTKLEIKGGGGSGGGGSGGGGSGGGGSEVQLVQSGAEVKKPGASVKVSCKASGYTFTTYAIHWVRQAPGQGLEWMGYINPSSGYTRYNPKFKHRVTMTRDKSTSTAYMELRSLRSDDTAVYYCWTGTRDYWGQGTTVTVSSHHHHHH
For the molecule B6, the “percentage of input scFv antibody bound” value in experiment [1], in [2], in experiment [3], in experiment [4], in experiment [5] and in experiment [6] was 94% each time.

B7: TPP-7790 scFv with C-terminal 6xHIS tag (scFv)
scFv: DIQLTQSPSFLSASVGDRVTITCRASSSVRYIYWFQQKPGKAPKLLIYATSFLQSGVPSRFSGSGSGTEYTLTISSLQPEDFATYYCHQRNSFPYTFGQGTKLEIKGGGGSGGGGSGGGGSGGGGSEVQLVQSGAEVKKPGASVKVSCKASGYTFTTYAIHWVRQAPGQGLEWMGYINPSSGYTRYNPKFKHRVTMTRDKSTSTAYMELRSLRSDDTAVYYCWTGTRDYWGQGTTVTVSSHHHHHH
On to B7, for which the “percentage of input scFv antibody bound” value in experiment [1] came out at 99%; in experiment [2] it was 87%; in [3] it was 94%; in [4], 99%; in [5], 99%; in experiment [6], 99%.

B8: TPP-7796, affinity matured 6C12 Fab (Fab, V domains shown)
VH: EVQLVQSGAEVKKPGASVKVSCKASGYTFTTYTIHWVRQAPGQGLEWMGYINPKSGWTRYNPKFKGRVTMTRDKSTSTAYMELRSLRSDDTAVYYCQTGTRDYWGQGTTVTVSS
VL: DIQLTQSPSFLSASVGDRVTITCRASSSVSYIYWFQQKPGKAPKLLIYATSTLQSGVPSRFSGSGSGTEYTLTISSLQPEDFATYYCHQRNSFPYTFGQGTKLEIK
notes: Tested as Fab
One may read the Kd as the concentration at which binding is half-saturated. For orientation: koff means a measure of how fast the partners let go of each other. Usually kon stands for a measure of how fast the partners come together. Turning to B8, the “percentage of input antibody bound” value in [7] was 12%; in [8], 13%; in experiment [9], 56%; in experiment [10], 15%; in experiment [11] it was 68%; in experiment [12] it was 48%. Moreover, the “percentage of input antibody bound” value in [13] came out at 21%; in experiment [14], 43%; in [15], 82%; in experiment [18], 96%; in experiment [19], 0%; in experiment [20] it was 7%. Besides, in experiment [16], the equilibrium dissociation constant (Kd) is 0.111 nM. Also, the off-rate constant (koff) in experiment [16] was determined as 0.00238 s⁻¹. Also, the “Estimated T½” value in [17] is 5 min. The molecule also gave an association rate constant (kon) in experiment [21] of 2.15e+07 M⁻¹ s⁻¹.

The values above are taken from US20190359687A1 (Bayer, published 2019).
